Measurements published in patent US20230203153A1 (CHILDREN S MEDICAL CENTER, published 2023).
Substitutions are numbered along the chain they refer to. Where “and” joins values, the source holds several entries; their conditions need not be identical. Equal entries are not always repeated. Where two headings read alike, the source gives them in different places. One block for each binder: values may come before it. Bridge positions count the residues as written; N and C are the ends. Ends that are not written are not given here. * marks the point of attachment. Biotin = O=C1N[C@H]2[C@H](CS[C@H]2CCCCC(=O)*)N1

Key:
[1] = molecular target: T1, 'scrambled' (neg. ctrl.) peptide (also: conjugated to BSA); test: linear peptide ELISA, BSA-conjugated peptides (20 µM), OD 450 nm (mAb-Iso)
T1 construct: also called scrambled|BSA peptide
T1 peptide: GFEALGTAIRYPMGQR
From the text: (§1) Specificity for ABCB5 of Ab100. ELISAs run against ABCB5 peptide used to make the antibody was examined. The linear peptide ELISA binding study was a comparative assessment of quantitative binding to ABCB5 linear epitope peptide (3rd extracellular loop) and corresponding peptide segments of homologous (ABCB 1, 4, 11) and orthologous (murine ABCB5) proteins—to assess specificity and/or cross-reactivity (see FIG. 2). […] A primate sequence was not tested as the epitope sequence is identical to the human epitope. A scrambled peptide was used as a negative control. All of the tested peptides are all linear peptides, synthetically created to resemble extracellular loop. The X-axis is the Ab concentration. The Y-axis is the optical density of ELISA (signal representing binding). A non-specific signal with isotype antibody has been subtracted, which is why a non-specific isotype antibody is not shown.

[2] = molecular target: T2, ABCB4 peptide segment corresponding to the ABCB5 linear epitope peptide (human, UniProt P21439 957-972, limits assumed); test: as above
T2 construct: domain: corresponding peptide segment (3rd extracellular loop); also called homologous control peptide
T2 peptide (looked up): RFGAYLIVNGHMRFRD
From the text: as §1

[3] = molecular target: T3, ABCB5 linear epitope peptide (3rd extracellular loop) (human); test: as above
T3 construct: Synthetic linear peptide, used at 20 uM in the ELISA; 104; also called ABCB5 peptide; linear peptide
T3 peptide: RFGAYLIQAGRMTPEG
From the text: as §1

[4] = molecular target: T4, cyclic (biotinylated) ABCB5 peptide (human, disulfide 1-18); test: cyclic biotinylated peptide ELISA (200 nM peptide on streptavidin plates), BSA control subtracted (FIG. 4B)
T4 construct: immobilised at 200 nM on streptavidin-precoated plates; also called cyclic ABCB5 peptide
T4 peptide: Biotin-CRFGAYLIQAGRMTPEGC

[5] = molecular target: T4, cyclic (biotinylated) ABCB5 peptide; test: cyclic biotinylated peptide ELISA (200 nM peptide on streptavidin plates), no Ab control subtracted (FIG. 4A)
[6] = molecular target: T4, cyclic (biotinylated) ABCB5 peptide; test: cyclic biotinylated peptide ELISA (200 nM peptides), curve fit
[7] = molecular target: T4, cyclic (biotinylated) ABCB5 peptide; test: cyclic biotinylated peptide ELISA (200 nM peptides), curve fit, OD 450 nm
[8] = molecular target: T5, cyclic 'scrambled' (neg. ctrl.) peptide (disulfide 1-18); test: cyclic biotinylated peptide ELISA (200 nM peptides), OD 450 nm (mAb-average Iso)
T5 construct: also called cycl. 'scrambled'
T5 peptide: Biotin-CGFEALGTAIRYPMGQRC

[9] = molecular target: T1, 'scrambled' (neg. ctrl.) peptide; test: linear peptide ELISA, BSA-conjugated peptides (20 µM), OD 450 nm (mAb-Iso (InVivoPlus+))
[10] = molecular target: T6, ABCB1 peptide segment corresponding to the ABCB5 linear epitope peptide (human, UniProt P08183 958-973, limits assumed); test: as above
T6 construct: domain: corresponding peptide segment (3rd extracellular loop); also called homologous control peptide
T6 peptide (looked up): RFGAYLVAHKLMSFED

[11] = molecular target: T7, ABCB11 peptide segment corresponding to the ABCB5 linear epitope peptide (human, UniProt O95342 1001-1016, limits assumed); test: as above
T7 construct: domain: corresponding peptide segment (3rd extracellular loop); also called homologous control peptide
T7 peptide (looked up): RYGGYLISNEGLHFSY

[12] = molecular target: T3, ABCB5 linear epitope peptide (3rd …); test: as above
[13] = molecular target: T4, cyclic (biotinylated) ABCB5 peptide; test: cyclic biotinylated peptide ELISA (200 nM peptides), broad range of mAb concentrations, curve fit
[14] = molecular target: T4, cyclic (biotinylated) ABCB5 peptide; test: cyclic biotinylated peptide ELISA (200 nM peptides), broad range of mAb concentrations, curve fit, OD 450 nm
[15] = molecular target: T4, cyclic (biotinylated) ABCB5 peptide; test: cyclic biotinylated peptide ELISA (200 nM peptides), broad range of mAb concentrations, OD 450 nm (mAb-average Iso)
[16] = molecular target: T1, 'scrambled' (neg. ctrl.) peptide; test: linear peptide ELISA, BSA-conjugated peptides (20 µM), OD 450 nm (mAb-Iso (InVivoPlus+))
[17] = molecular target: T6, ABCB1 peptide segment corresponding to …; test: as above
[18] = molecular target: T7, ABCB11 peptide segment corresponding to …; test: as above
[19] = molecular target: T3, ABCB5 linear epitope peptide (3rd …); test: as above

binding result [1]: no binding (tested: 50 µg/mL) | binding result [2]: no binding (tested: 50 µg/mL) | binding result [3]: binds | Kd [4]: 6.16 µg/mL and 41.3 nM | Kd [5]: 4.93 µg/mL and 33.1 nM
B1: ABCB5-Ab100 (antibody, human IgG1, kappa, V domains shown)
VH: EVQLVESGGGLVQPGGSLRLSCAASGFTFSSYSMNWVRQAPGKGLEWVSYISSSSSTIYYADSVKGRFTISRDNAKNSLYLQMNSLRDEDTAVYYCASNYQYGDYGGYWGRGTLVTVSS
VL: AIQLTQSPSSLTGSVGDRVTITCQASHDISNFLNWYQQKPGQAPKLLIYDAYNLQTGVPSRFSGTGSGTHFTLTINSLQPEDVGTYFCQQYDYFLSITFGQGTRLEIKR

Kd [6]: 0.0283 µg/mL and 0.19 nM | Bmax [7]: 3.33 | binding result [8]: no binding (tested: 1 µg/ml) | binding result [9]: no binding (tested: 50 µg/ml) | binding result [10]: no binding (tested: 50 µg/ml) | binding result [11]: no binding (tested: 50 µg/ml) | binding result [12]: binds | Kd [13]: 0.039 µg/mL and 0.261 nM | Bmax [14]: 3.83 | EC50 (read off the curve) [15]: ~0.04 µg/mL
B2: ABCB5-Ab101 (antibody, human IgG1, kappa, V domains shown)
VH: QVQLVQSGAEVKKPGASVKVSCKASGYTFTSYYMHWVRQAPGQGLEWMGIINPSGGSTSYAQKFQGRVTMTRDTSTSTVYMELSSLRSEDTAVYYCARDQAVTGTAYYYYYGMDVWGQGTTVTVSS
VL: EIVLTQSPGTLSLSPGERATLSCRASQSVNSNYLAWYQQKPGQAPRLLIYGTSSRATGIPDSFSGSGSGTDFTLTISRLEPEDFAVYYCQQFGSSPLTFGGGTKVEIKR
notes: Fully human monoclonal IgG1 kappa

Kd [6]: 0.0204 µg/mL and 0.137 nM | Bmax [7]: 3.24 | binding result [8]: no binding (tested: 1 µg/ml) | binding result [16]: no binding (tested: 50 µg/ml) | binding result [17]: no binding (tested: 50 µg/ml) | binding result [18]: no binding (tested: 50 µg/ml) | binding result [19]: binds | Kd [13]: 0.0345 µg/mL and 0.231 nM | Bmax [14]: 3.77 | EC50 (read off the curve) [15]: ~0.04 µg/mL
B3: ABCB5-Ab43 (antibody, V domains shown)
VH: B2 VH with A40S
VL: EIVLTQSPGTLSLSPGERATLSCRASQSVNSKYLAWYQQKPGQAPRLLIYGTSSRATGIPDSFSGSGSGTDFTLTISRLEPEDFAVYYCQQFGSSPLTFGGGTKVEIK

Kd [6]: 0.00456 µg/mL and 0.0306 nM | Bmax [7]: 3.2 | binding result [8]: no binding (tested: 1 µg/ml) | binding result [16]: no binding (tested: 50 µg/ml) | binding result [17]: no binding (tested: 50 µg/ml) | binding result [18]: no binding (tested: 50 µg/ml) | binding result [19]: binds | Kd [13]: 0.0205 µg/mL and 0.138 nM | Bmax [14]: 3.71 | EC50 (read off the curve) [15]: ~0.02 µg/mL
B4: ABCB5-Ab45 (antibody, V domains shown)
VH: B2 VH with S31N, L45P, Q100L
VL: B3 VL with I2F, K32N

Kd [6]: 0.0222 µg/mL and 0.149 nM | Bmax [7]: 3.17 | binding result [8]: no binding (tested: 1 µg/ml) | binding result [16]: no binding (tested: 50 µg/ml) | binding result [17]: no binding (tested: 50 µg/ml) | binding result [18]: no binding (tested: 50 µg/ml) | binding result [19]: binds | Kd [13]: 0.0471 µg/mL and 0.316 nM | Bmax [14]: 4.09 | EC50 (read off the curve) [15]: ~0.04 µg/mL
B5: ABCB5-Ab42 (antibody, V domains shown)
VH: B2 VH with A24T, A40S
VL: B3 VL with Q27L, K32N
notes: detection was with an anti-human secondary antibody

Kd [6]: 0.00917 µg/mL and 0.0615 nM | Bmax [7]: 3.23 | binding result [8]: no binding (tested: 1 µg/ml) | binding result [16]: no binding (tested: 50 µg/ml) | binding result [17]: no binding (tested: 50 µg/ml) | binding result [18]: no binding (tested: 50 µg/ml) | binding result [19]: binds | Kd [13]: 0.0335 µg/mL and 0.225 nM | Bmax [14]: 3.99 | EC50 (read off the curve) [15]: ~0.04 µg/mL
B6: ABCB5-Ab44 (antibody, V domains shown)
VH: B2 VH with Q65K
VL: B3 VL with K32N
notes: also called A44; F01
